From publication PMC3392491 come the findings set out here.

For this data set, the target named is T1, Dda K38A (bacteriophage T4, UniProt P32270 1-439, K38A).
T1 sequence: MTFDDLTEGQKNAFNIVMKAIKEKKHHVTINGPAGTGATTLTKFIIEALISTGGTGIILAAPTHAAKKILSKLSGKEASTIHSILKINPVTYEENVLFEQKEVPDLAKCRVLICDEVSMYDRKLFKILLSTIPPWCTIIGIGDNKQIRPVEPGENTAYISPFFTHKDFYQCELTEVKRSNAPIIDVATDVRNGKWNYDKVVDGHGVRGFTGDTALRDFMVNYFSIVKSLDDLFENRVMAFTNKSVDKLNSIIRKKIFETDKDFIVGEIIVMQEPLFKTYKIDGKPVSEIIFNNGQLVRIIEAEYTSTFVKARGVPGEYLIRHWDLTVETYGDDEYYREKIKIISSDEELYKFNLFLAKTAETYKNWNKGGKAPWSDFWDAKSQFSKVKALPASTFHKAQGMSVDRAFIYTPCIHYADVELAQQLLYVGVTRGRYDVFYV
In words: X-ray crystallography.

B1: dT8 (ssDNA)
DNA: TTTTTTTT
With B1, the binding result was “binds”.
